Source: paper PMC5101663

Molecular target: Acinetobacter phage AP205 SpyTag-VLP (one SpyTag per VLP subunit) (Acinetobacter phage AP205)
Experiment: covalent conjugation shown by reduced SDS-PAGE with densitometry; antigen and Spy-VLP mixed at 1.5:1 molar ratio (antigen per VLP subunit), overnight at 4 °C in PBS, 0.2% Polysorbate 80, pH 7.2; covalent SpyTag/SpyCatcher bond

HIS-CSP-SpyCatcher antigen (from UniProt Q7K740 25-383)
stoichiometry N (CSP antigens per VLP): 112
